Results on one substance are retold here after patent publication US20160311921A1.

For this experiment, the target named is farletuzumab. The experiment in a line: cell-based or functional assay.
Sequence of farletuzumab (heavy, as listed by the source, chain 1 of 2): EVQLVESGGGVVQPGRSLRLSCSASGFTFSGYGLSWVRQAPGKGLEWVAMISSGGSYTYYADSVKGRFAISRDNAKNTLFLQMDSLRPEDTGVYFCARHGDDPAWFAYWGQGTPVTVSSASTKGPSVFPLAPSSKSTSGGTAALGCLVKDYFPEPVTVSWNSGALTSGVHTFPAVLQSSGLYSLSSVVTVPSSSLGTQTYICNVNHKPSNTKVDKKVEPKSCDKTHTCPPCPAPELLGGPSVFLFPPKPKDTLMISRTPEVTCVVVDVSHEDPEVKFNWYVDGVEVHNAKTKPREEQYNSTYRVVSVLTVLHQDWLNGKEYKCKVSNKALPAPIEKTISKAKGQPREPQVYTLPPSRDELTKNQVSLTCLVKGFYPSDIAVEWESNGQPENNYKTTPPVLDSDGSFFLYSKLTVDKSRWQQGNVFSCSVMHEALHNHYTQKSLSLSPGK
Sequence of farletuzumab (light, as listed by the source, chain 2 of 2): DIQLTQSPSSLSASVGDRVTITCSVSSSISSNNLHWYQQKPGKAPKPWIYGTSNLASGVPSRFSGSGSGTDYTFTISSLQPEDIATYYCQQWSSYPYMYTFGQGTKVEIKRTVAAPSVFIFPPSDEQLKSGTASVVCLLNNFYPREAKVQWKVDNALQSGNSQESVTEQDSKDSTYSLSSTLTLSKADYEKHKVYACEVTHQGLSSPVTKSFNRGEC

In turn, “cancer antigen 125 (CA125) (from UniProt Q8WXI7 1-14451)” returned an inhibition of Farletuzumab ADCC activity (luminescence, Promega ADCC Reporter Bioassay Core Kit, CHO-hFR-α target cells) of 50%.
